Source: US20110275559A1, “Long-Acting Y2 and/or Y4 Receptor Agonists” (Novo Nordisk A/S, priority 2008, published 2011)
Like-named read-outs stand apart in the source and are kept apart here. *1 amine or outer side, *2 acyl side, *3 side chain or, on linkers, in order; H or OH if unused. Where a SMILES comes first, the peptide text is derived from it. Where no end group is shown, it is not given here. Side-chain parts run from the residue outwards. The star is where a group is joined. C20 diacid = O=C(O)CCCCCCCCCCCCCCCCCCC(=O)*; C18 diacid = O=C(O)CCCCCCCCCCCCCCCCC(=O)*; γGlu = O=C(O)[C@H](CCC(=O)[*:2])N[*:1]; Trx = NC[C@H]1CC[C@H](C(=O)O)CC1; AEEA = NCCOCCOCC(=O)O

T1: Y2 receptor (Homo sapiens, UniProt P49146)
T1 construct: host or cells: ACTOne HEK-293 cells
T1 sequence (P49146 1-381): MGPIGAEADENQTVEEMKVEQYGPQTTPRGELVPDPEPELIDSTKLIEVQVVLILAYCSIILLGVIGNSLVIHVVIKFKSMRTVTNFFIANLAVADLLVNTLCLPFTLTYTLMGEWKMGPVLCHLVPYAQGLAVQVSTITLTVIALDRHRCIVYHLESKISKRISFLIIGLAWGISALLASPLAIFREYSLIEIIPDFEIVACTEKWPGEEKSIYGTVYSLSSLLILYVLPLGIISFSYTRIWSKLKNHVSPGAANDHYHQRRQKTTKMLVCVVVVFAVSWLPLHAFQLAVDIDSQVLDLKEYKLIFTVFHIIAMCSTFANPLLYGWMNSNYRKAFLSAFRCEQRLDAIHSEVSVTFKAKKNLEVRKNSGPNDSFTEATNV

T2: Y2 receptor (UniProt P49146 1-381, limits assumed)
T2 sequence (looked up): T1 sequence (P49146 1-381)


Key:
Y2 receptor [1] = target: T1, Y2 receptor; test: Y2 receptor ACTOne based FLIPR assay (cAMP biosensor); assay type: cell-based
Description: ACTOne™ is an easily scaleable cAMP biosensor HTS platform for measurement of Gs and Gi coupled 7™ receptor signalling from BD Biosciences (San Jose, Calif.). The cells express a biosensor developed around a modified rat olfactory cyclic nucleotide gated (CNG) calcium channel—a fairly non-discriminatory ion channel that responds to cAMP and cGMP. The CNG has been engineered to be cAMP selective and thus function as a cAMP responsive biosensor that signals through calcium or membrane potential responsive dyes. Y2 or Y4 receptor expressing ACTOne HEK-293 cells are obtained from BD Biosciences. The cells are loaded with a calcium responsive dye that only distributes in the cytoplasm. Probenecid, an inhibitor of the organic anion transporter is added to prevent the dye from leaving the cell. A phosphodiesterase inhibitor is added to prevent formatted cAMP from being degraded. Isoproterenol (an β1/β2 agonist) is added to activate the adenylate cyclase. When an Y2 or Y4 receptor agonist is added, the adenylate cyclase is inactivated. The decreased calcium concentration in the cytoplasm is then detected as an increase in fluorescence. Together with the test substance, Isoproterenol at a concentration matching EC80, is added to all wells. • The cells are plated out in Greiner 384-well plates. […] The plates are covered with tinfoil to avoid light (the dye can be excited by the daylight, which results in higher baseline and variation). • The FLIPR (FLIPRtetra from Molecular Devices, CA, USA) adds 1 μl sample and 1 μl isoproterenol (0.05 μM final concentration) at the same time. • The fluorescence signal from the wells is measured 330 seconds after sample addition on the FLIPR.

in vivo = conditions: Göttingen, minipig, iv
Summary of the method: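 Catheterised mini-pigs received compound i.v. at 10 nmol/kg in pH 4.0 phosphate/NaCl/tween vehicle, or alternatively i.v. or s.c. at 1–30 nmol/kg in pH 8.0 K2HPO4/tween. Stabilised plasma was sampled up to 13 days and assayed by LC-MS (LLOQ 2 nM). Half-life came from non-compartmental analysis of individual animal profiles.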

Y4 receptor = Y4 receptor (UniProt P50391 1-375, limits assumed); test: cell-based or functional assay
Sequence of Y4 receptor (P50391 whole entry): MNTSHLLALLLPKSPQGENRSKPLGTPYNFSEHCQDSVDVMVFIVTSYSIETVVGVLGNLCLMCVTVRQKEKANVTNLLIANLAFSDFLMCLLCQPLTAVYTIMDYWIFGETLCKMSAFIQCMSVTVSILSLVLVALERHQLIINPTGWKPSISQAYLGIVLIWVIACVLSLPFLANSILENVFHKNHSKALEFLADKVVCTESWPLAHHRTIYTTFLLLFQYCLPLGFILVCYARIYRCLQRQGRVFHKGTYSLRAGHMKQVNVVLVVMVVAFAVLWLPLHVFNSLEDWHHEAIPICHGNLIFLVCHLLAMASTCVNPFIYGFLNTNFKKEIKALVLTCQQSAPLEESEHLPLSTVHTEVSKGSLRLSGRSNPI

Y2 receptor [2] = target: T2, Y2 receptor; test: cell-based or functional assay
[3] = Table 2, PP analogues, ACTOne HEK-293 cells, read-out: Y2 cAMP EC50

Y4 cAMP EC50 (Y4 receptor) [nM]	Y2 cAMP EC50 (Y2 receptor [2]) [nM]	Molecule	other results
> 1000	> 1000	PLEPVYPGDNATPEQLAQYAADLRRYINLLTK([AEEA-AEEA-γGlu-Trx-C20 diacid])PRY (ends and bridges not checked)	
0.8	> 1000	PLEPVYPGDNATPEQLK([AEEA-AEEA-γGlu-Trx-C20 diacid])QYAADLRRYINLLTRPRY (ends and bridges not checked)	

Continued, molecule first:

Molecule	Y4 cAMP EC50 (Y4 receptor) [nM]	Y2 cAMP EC50 (Y2 receptor [2]) [nM]	other results
CC[C@H](C)[C@H](NC(=O)[C@H](Cc1ccc(O)cc1)NC(=O)[C@H](CCCNC(=N)N)NC(=O)[C@H](CCCNC(=N)N)NC(=O)[C@H](CC(C)C)NC(=O)[C@H](CC(=O)O)NC(=O)[C@H](C)NC(=O)[C@H](C)NC(=O)[C@H](Cc1ccc(O)cc1)NC(=O)[C@H](CCC(N)=O)NC(=O)[C@H](C)NC(=O)[C@H](CC(C)C)NC(=O)[C@H](CCC(N)=O)NC(=O)[C@H](CCC(=O)O)NC(=O)[C@@H]1CCCN1C(=O)[C@H](CCCCNC(=O)COCCOCCNC(=O)COCCOCCNC(=O)CC[C@H](NC(=O)[C@H]1CC[C@H](CNC(=O)CCCCCCCCCCCCCCCCCCC(=O)O)CC1)C(=O)O)NC(=O)[C@H](C)NC(=O)[C@H](CC(N)=O)NC(=O)[C@H](CC(=O)O)NC(=O)CNC(=O)[C@@H]1CCCN1C(=O)[C@H](Cc1ccc(O)cc1)NC(=O)[C@@H](NC(=O)[C@@H]1CCCN1C(=O)[C@H](CCC(=O)O)NC(=O)[C@H](CC(C)C)NC(=O)[C@@H]1CCCN1C(=O)[C@H](C)N)C(C)C)C(=O)N[C@@H](CCC(N)=O)C(=O)N[C@@H](CC(C)C)C(=O)N[C@@H](CC(C)C)C(=O)N[C@H](C(=O)N[C@@H](CCCNC(=N)N)C(=O)N1CCC[C@H]1C(=O)N[C@@H](CCCNC(=N)N)C(=O)N[C@@H](Cc1ccc(O)cc1)C(N)=O)[C@@H](C)O [SEQ ID NO: 18, N-epsilon13-[2-(2-{2-[2-(2-{2-[(S)-4-Carboxy-4-({trans-4-[(19-carboxynonadecanoylamino)methyl]cyclohexanecarbonyl}amino)butyrylamino]-ethoxy}ethoxy)acetylamino]ethoxy}ethoxy)acetyl][Lys13,Leu17,Gln29,Leu30]hPP(1-36)] (H-APLEPVYPGDNAK([AEEA-AEEA-γGlu-Trx-C20 diacid])PEQLAQYAADLRRYIQLLTRPRY-NH2)			EC50 (Y2 receptor [1]): > 1000 nM
CC[C@H](C)[C@H](NC(=O)[C@H](Cc1ccc(O)cc1)NC(=O)[C@H](CCCNC(=N)N)NC(=O)[C@H](CCCNC(=N)N)NC(=O)[C@H](CC(C)C)NC(=O)[C@H](CC(=O)O)NC(=O)[C@H](C)NC(=O)[C@H](C)NC(=O)[C@H](Cc1ccc(O)cc1)NC(=O)[C@H](CCC(N)=O)NC(=O)[C@H](CCCCNC(=O)COCCOCCNC(=O)COCCOCCNC(=O)CC[C@H](NC(=O)CCCCCCCCCCCCCCCCC(=O)O)C(=O)O)NC(=O)[C@H](CC(C)C)NC(=O)[C@H](CCC(N)=O)NC(=O)[C@H](CCC(=O)O)NC(=O)[C@@H]1CCCN1C(=O)[C@@H](NC(=O)[C@H](C)NC(=O)[C@H](CC(N)=O)NC(=O)[C@H](CC(=O)O)NC(=O)CNC(=O)[C@@H]1CCCN1C(=O)[C@H](Cc1ccc(O)cc1)NC(=O)[C@@H](NC(=O)[C@@H]1CCCN1C(=O)[C@H](CCC(=O)O)NC(=O)[C@H](CC(C)C)NC(=O)[C@@H]1CCCN1)C(C)C)[C@@H](C)O)C(=O)N[C@@H](CC(N)=O)C(=O)N[C@@H](CC(C)C)C(=O)N[C@@H](CC(C)C)C(=O)N[C@H](C(=O)N[C@@H](CCCNC(=N)N)C(=O)N1CCC[C@H]1C(=O)N[C@@H](CCCNC(=N)N)C(=O)N[C@@H](Cc1ccc(O)cc1)C(N)=O)[C@@H](C)O [SEQ ID NO: 32, N-epsilon18-[2-(2-{2-[2-(2-{2-[(S)-4-Carboxy-4-(17-carboxyheptadecanoylamino)butyrylamino]ethoxy}ethoxy)acetylamino]-ethoxy}ethoxy)acetyl][Lys18,Leu17,Leu30]hPP2-36] (H-PLEPVYPGDNATPEQLK([AEEA-AEEA-γGlu-C18 diacid])QYAADLRRYINLLTRPRY-NH2; N-terminus and C-terminus assumed)			EC50 (Y2 receptor [1]; [3]): > 1000 nM; half-life (in vivo; 12 nmol/kg): 46 h
CC[C@H](C)[C@H](NC(=O)[C@H](Cc1ccc(O)cc1)NC(=O)[C@H](CCCNC(=N)N)NC(=O)[C@H](CCCNC(=N)N)NC(=O)[C@H](CC(C)C)NC(=O)[C@H](CC(=O)O)NC(=O)[C@H](C)NC(=O)[C@H](C)NC(=O)[C@H](Cc1ccc(O)cc1)NC(=O)[C@H](CCC(N)=O)NC(=O)[C@H](CCCCNC(=O)COCCOCCNC(=O)COCCOCCNC(=O)CC[C@H](NC(=O)[C@H]1CC[C@H](CNC(=O)CCCCCCCCCCCCCCCCCCC(=O)O)CC1)C(=O)O)NC(=O)[C@H](CC(C)C)NC(=O)[C@H](CCC(N)=O)NC(=O)[C@H](CCC(=O)O)NC(=O)[C@@H]1CCCN1C(=O)[C@@H](NC(=O)[C@H](C)NC(=O)[C@H](CC(N)=O)NC(=O)[C@H](CC(=O)O)NC(=O)CNC(=O)[C@@H]1CCCN1C(=O)[C@H](Cc1ccc(O)cc1)NC(=O)[C@@H](NC(=O)[C@@H]1CCCN1C(=O)[C@H](CCC(=O)O)NC(=O)[C@H](CC(C)C)NC(=O)[C@@H]1CCCN1)C(C)C)[C@@H](C)O)C(=O)N[C@@H](CC(N)=O)C(=O)N[C@@H](CC(C)C)C(=O)N[C@@H](CC(C)C)C(=O)N[C@H](C(=O)N[C@@H](CCCNC(=N)N)C(=O)N1CCC[C@H]1C(=O)N[C@@H](CCCNC(=N)N)C(=O)N[C@@H](Cc1ccc(O)cc1)C(N)=O)[C@@H](C)O [SEQ ID NO: 43, N-epsilon18-[2-(2-{2-[2-(2-{2-[(S)-4-Carboxy-4-({trans-4-[(19-carboxynonadecanoylamino)methyl]cyclohexanecarbonyl}amino)butyrylamino]-ethoxy}ethoxy)acetylamino]ethoxy}ethoxy)acetyl][Leu17,Lys18,Leu30]hPP2-36] (H-PLEPVYPGDNATPEQLK([AEEA-AEEA-γGlu-Trx-C20 diacid])QYAADLRRYINLLTRPRY-NH2; N-terminus and C-terminus assumed)			EC50 (Y2 receptor [1]; [3]): > 1000 nM; half-life (in vivo; 13.5 nmol/kg): 55 h
PLEPVYPGDNATPEQLAQYAADLRRYINLLTRPK([AEEA-AEEA-γGlu-C18 diacid])Y (ends and bridges not checked)	> 1000	> 1000	
PLEPVYPGDNATPEQLAQYAADLRRYIK([AEEA-AEEA-γGlu-Trx-C20 diacid])LLTRPRY (ends and bridges not checked)	> 890	> 1000	
PLEPVYPGDNATPEQLAQYAADLRK([AEEA-AEEA-γGlu-Trx-C20 diacid])YINLLTRPRY (ends and bridges not checked)	7	> 1000	
PLEPVYPGDNATPEQLAQYAADLRRYINLLTK([AEEA-AEEA-γGlu-C18 diacid])PRY (ends and bridges not checked)	> 1000	> 1000	
PLEPVYPGDK([AEEA-AEEA-γGlu-C18 diacid])ATPEQLAQYAADLRRYINLLTRPRY (ends and bridges not checked)	1	> 1000	
PLEPVYPGDNATPEQLAQYAADLRK([AEEA-AEEA-γGlu-C18 diacid])YINLLTRPRY (ends and bridges not checked)	5	> 1000	
PLEPVYPGDNATPEQLK([AEEA-AEEA-γGlu-C18 diacid])QYAADLRRYINLLTRPRY (ends and bridges not checked)	0.4	> 1000	
